Stoichiometry N data for three substances are collected here from article PMC3447985.

Holding throughout (assay): SEC
In general terms: In gel filtration, larger molecules generally elute earlier.

Assay [1] deals with Human apolipoprotein E4 S94C (human) (UniProt P02649).
The target in assay [2] is Human apolipoprotein E4 S290C (human) (UniProt P02649).
Assay [3] deals with Human apolipoprotein E4 W264C (human) (UniProt P02649).

What is called stoichiometry N is the number of molecules, sites or subunits per partner or assembly. In turn, “Human apolipoprotein E4 S94C (from UniProt P02649 19-317) (natural protein)” came in with a stoichiometry N in assay [1] of 4.

Turning to “Human apolipoprotein E4 S290C (from UniProt P02649 19-317) (natural protein)”, in assay [2], the stoichiometry N is 4. In assay [3], “Human apolipoprotein E4 W264C (from UniProt P02649 19-317) (natural protein)” registered a stoichiometry N of 4.
